T1: recombinant human Interleukin-8 (human, UniProt P10145 28-99)
T1 construct: also called rhIL-8; IL-8
T1 sequence (looked up): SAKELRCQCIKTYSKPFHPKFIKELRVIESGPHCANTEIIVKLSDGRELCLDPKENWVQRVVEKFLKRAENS

T2: IL-8 peptide ELRCQCIKTYSK (human)
T2 peptide: ELRCQCIKTYSK


Assays:
[1] = biological target: T1, recombinant human Interleukin-8; assay: KinExA equilibrium, optimized, n-curve analysis, mAb 1.3 and 13 pM
Excerpt: (§1) The mixture was drawn through the rhIL-8-coupled beads to accumulate unbound antibody. The captured anti-hIL-8 mAb is directly proportional to the remaining free binding sites and was detected using solutions containing Cy5-conjugated anti-human secondary antibody in sample buffer. The concentrations, volumes, and flow rates of the secondary antibody solutions were varied to optimize the signal to noise ratio in each experiment. The bound signals were converted into relative values as a proportion of control in the absence of rhIL-8. The equilibrium dissociation constant (Kd) was obtained from nonlinear regression analysis of the data using a one-site homogeneous binding model contained within the software [Blake et Al., Anal. Biochem. 272:123, 1999; Jones et al., Bioconjug Chem 13:408, 2002]. […]
(§2) A proportionate amount of free mAb present in the equilibrium mixture was measured in KinExA under optimized conditions. For example, for the mixtures containing the low concentration of mAb, 18-36 ml of the sample was flown through rhIL-8 coupled to NHS-activated Sepharose beads and detected using 1-2 ml of 2.0 μg/ml of Cy5-labeled goat anti-human IgG Fcγ fragment-specific secondary antibody. The Kd was calculated using KinExA software by using the “n-curve analysis” selection.

[2] = biological target: T1, recombinant human Interleukin-8; assay: KinExA "Kinetics, Direct" method
Excerpt: (§3) For measuring the association rate constant using KinExA, the same rhIL-8-coupled beads were used as the probe and the “Kinetics, Direct” method was used. The “Kinetics, Direct” experiments by KinExA are identical to KinExA equilibrium assays with respect to bead column height, antibody capture, antibody concentration and antibody detection. Briefly, the mAb was mixed with an amount of antigen that bound approximately 80% of the mAb in the equilibrium experiments and the free antibody present in the sample was probed repeatedly, pre-equilibrium. […] The volumes and flow rates of the antigen-mAb mixtures and the Cy5-labeled secondary antibody were varied depending upon the mAb tested. Data was analyzed utilizing the KinExA analysis software that comes with the KinExA 3000 instrument. This software graphically represents the decrease in binding signals over time, and fits the collected data points to an exact solution of the kinetic differential equations for binding. From this curve, an optimal solution for the kₒₙ is determined. The koff is indirectly calculated from solutions for the kₒₙ and Kd.
(§4) The on-rate measurement by KinExA is not limited by the mAb concentration used in the experiment. […] The concentration of mAb used for on-rate experiments was the same as those used in equilibrium binding experiments. An amount of IL-8 that bound 80% of the mAb in equilibrium binding experiments was mixed with the mAb. The amount of free mAb left in the mixture was measured in KinExA by flowing 1 ml of the mixture repeatedly through rhIL-8 coupled to NHS-activated Sepharose beads and detected using 1 ml of 2.0 μg/ml of Cy5-labeled goat anti-human IgG Fcγ fragment-specific secondary antibody. The kₒₙ was measured using the KinExA software by the “Kinetic, Direct” method and the 95% confidence intervals are given as kₒₙ range. The koff for the mAb was calculated from the measured kₒₙ and Kd of the respective mAb.

[3] = biological target: T1, recombinant human Interleukin-8; assay: calculated from KinExA kon and Kd
Excerpt: as §3, §4

[4] = biological target: T1, recombinant human Interleukin-8; assay: KinExA equilibrium in solution, 36 h, mAb 25 pM
Procedure: (§5) The experiments with KinExA were performed using an automated flow immunoassay system, KinExA 3000 [Ohmura et al., Anal. Chem. 73:3392, 2001] in which rhIL-8-coupled beads served as the solid phase. […] Antigen/antibody complexes were incubated at RT for 36 h to 144 h to allow equilibrium to be reached. The mixture was drawn through the rhIL-8-coupled beads to accumulate unbound antibody. The captured anti-hIL-8 mAb is directly proportional to the remaining free binding sites and was detected using solutions containing Cy5-conjugated anti-human secondary antibody in sample buffer. The concentrations, volumes, and flow rates of the secondary antibody solutions were varied to optimize the signal to noise ratio in each experiment. The bound signals were converted into relative values as a proportion of control in the absence of rhIL-8. The equilibrium dissociation constant (Kd) was obtained from nonlinear regression analysis of the data using a one-site homogeneous binding model contained within the software [Blake et Al., Anal. Biochem. 272:123, 1999; Jones et al., Bioconjug Chem 13:408, 2002]. The software calculates the Kd and determines the 95% confidence interval by fitting the data points to a theoretical Kd curve. The 95% confidence interval is given as Kd low and Kd high.
A proportionate amount of free mAb present in the equilibrium mixture was measured by flowing 0.25 ml to 3 ml of the sample on rhIL-8 coupled to CNBr-activated Sepharose beads and detected using 1.0 ml of 1.7 μg/ml of Cy5-labeled goat anti-human IgG Fcγ fragment-specific secondary antibody. Each sample was run in triplicate. The Kd was calculated by the KinExA software and the 95% confidence interval is given as the Kd range.

[5] = biological target: T1, recombinant human Interleukin-8; assay: not named in this sentence (summary of the filing's own affinity results)
[6] = biological target: T1, recombinant human Interleukin-8; assay: KinExA equilibrium in solution, 36 h, mAb 200 pM
Procedure: as §5, with “The software calculates the Kd and determines the 95% confidence interval by fitting the data points to a theoretical Kd curve. The 95% confidence interval is given as Kd low and Kd high.” left out
(§6) A proportionate amount of free mAb present in the equilibrium mixture was measured by flowing 0.25 ml to 3 ml of the sample on rhIL-8 coupled to CNBr-activated Sepharose beads and detected using 1.0 ml of 1.7 μg/ml of Cy5-labeled goat anti-human IgG Fcγ fragment-specific secondary antibody. […]

[7] = biological target: T1, recombinant human Interleukin-8; assay: KinExA equilibrium in solution, 36 h, mAb 10 pM
Procedure: as §5, with “The software calculates the Kd and determines the 95% confidence interval by fitting the data points to a theoretical Kd curve. The 95% confidence interval is given as Kd low and Kd high.” left out
as §6

[8] = biological target: T2, IL-8 peptide ELRCQCIKTYSK; assay: overlapping IL-8 peptides on a membrane; column "Recognized epitope"
Procedure: Briefly, overlapping IL-8 peptides, which were each two amino acids c-terminal to the previous peptide (as shown in FIG. 8) were prepared and attached to a membrane. Antibodies were then added and allowed to bind to the peptides.

[9] = biological target: T1, recombinant human Interleukin-8; assay: KinExA equilibrium, optimized, n-curve analysis, mAb 4.6 and 27 pM
Excerpt: as §1, §2

[10] = biological target: T1, recombinant human Interleukin-8; assay: KinExA equilibrium in solution, 36 h, mAb 23 pM
Procedure: as §5, with “The software calculates the Kd and determines the 95% confidence interval by fitting the data points to a theoretical Kd curve. The 95% confidence interval is given as Kd low and Kd high.” left out
as §6

[11] = biological target: T1, recombinant human Interleukin-8; assay: KinExA equilibrium in solution, 36 h, mAb 90 pM
Procedure: as §5, with “The software calculates the Kd and determines the 95% confidence interval by fitting the data points to a theoretical Kd curve. The 95% confidence interval is given as Kd low and Kd high.” left out
as §6

[12] = biological target: T1, recombinant human Interleukin-8; assay: KinExA equilibrium, optimized, n-curve analysis, mAb 18 and 120 pM
Excerpt: as §1, §2

[13] = biological target: T1, recombinant human Interleukin-8; assay: KinExA equilibrium in solution, 36 h, mAb 100 pM
Procedure: as §5, with “The software calculates the Kd and determines the 95% confidence interval by fitting the data points to a theoretical Kd curve. The 95% confidence interval is given as Kd low and Kd high.” left out
as §6

Row | Binder | kon [2] | koff [3] | Kd [4] | Kd [5] | further results
1 | anti-hIL-8 mAb 469 (antibody, human IgG2, V domains shown, also called antibody number 469) VH: EVQLLESGGGLVQPGGSLRLSCAASGFTFSSYVMSWVRQAPGKGLEWVSAINNSGGSTDYADSVKGRFTISRDNSKNTLYLQMNSLRAEDTAVYYCAKEGRFLEWSLYGLDVWGQGTTVTVSS VL: DIQMTQSPSSLSASVGDRVTIACRASQGIRNDLGWYQQKPGKAPKRLIYAASSLQSGVPSRFGGSGSGTEFTLTISSLQPEDFATYYCLQHNSYPRTFGQGTKVEIK | – | – | – | – | Kd [6]: 0.87 nM
2 | anti-hIL-8 mAb 33 (antibody, human IgG2, V domains shown, also called antibody number 33) VH: QVQLQQWGAGLLKPSETLSLTCAVYGGFFSGYYWSWIRQPPGKGLEWIGEINHSGSTNYNPSLKSRVTISVDTSKNQFSLKLISVTAADTAVYYCARGSAAEAFDIWGQGTMVTVSS VL: not shown | – | – | – | – | Kd [7]: 0.28 nM
3 | anti-hIL-8 mAb 837 (antibody, human IgG2, V domains shown, also called clone 36C6; ABXha-IL-8) VH: QVQLQQWGAGLLKPSETLSLTCAVFGGTFSGYYWTWIRQPPGKGLEWIGEVIHHGSTNYSPSLKSRVTISADTSKSQFSLRLSSVTAADTAVYYCARGGAAAALDSWGQGTLVIVSS VL: not shown | 1.1e+06 M⁻¹ s⁻¹ | 1.9e-05 s⁻¹ | – | ~0.0109 nM | binding result [8]: binds; Kd [11]: 0.011 nM; Kd [12]: 0.0157 nM
4 | anti-hIL-8 mAb 1093 (antibody, human IgG2, V domains shown, also called antibody number 1093) VH: QVQLQQWGAGLLKPSETLSLTCAVFGGSFSGYYWTWIRQPPGKGLEWIGEIIHHGSTNYSPSLKSRVTISADTSKSQFSLRLSSVTAADTAVYYCARGGAAAGLDSWGQGTLVTVSS VL: not shown | – | – | – | – | Kd [13]: 0.2 nM
5 | anti-hIL-8 mAb 142 (antibody, human IgG2, V domains shown, also called antibody number 142) VH: QVQLVQSGAEVKKPGASVKVSCKASGYTFTGYYMHWVRQAPGQGLEWMGWINSNSGGTNYSQKFQGRVTMTRDTSISTVYMELSRLRSDDTAVYYCASGYSYGYRYYYYGMDVWGQGTTVTVSS VL: DIQMTQSPSSLSASVGDRVTITCRASQGISNSLAWYQQKPGKVPNLLIYAASTLQSGVPSRFSGSGSGTDFTLTISSLQPEDVATYYCQKYNSVPLTFGGGTKVEIK | – | – | 0.4 nM | – | –
6 | anti-hIL-8 mAb 203 (antibody, human IgG2, V domains shown, also called antibody number 203) VH: QVQLVQSGAEVKKPGASVKVSCKASGYTFTGYYIHWVRQAPGQGLEWMGWINSNSGGTNFAQKFQGRVTMTRDTSISTAYMELSRLRPDDTAVYYCASGYRYGYRYYYYGMDVWGQGTTVTVSS VL: DIQMTQSPSSLSASVGDRVTITCRASQGISNSLAWYQQKPGKVPKLLIYAASTLQSGVPSRFSGSGSGTDFTLTISSLQPEDVATYYCQKYNSVPLTFGGGTKVEIN | – | – | 0.19 nM | – | –

Further lines, with some results ahead:

Row | kon [2] | koff [3] | Kd [4] | Kd [5] | Binder | further results
7 | 4.4e+06 M⁻¹ s⁻¹ | 1.3e-05 s⁻¹ | 0.0029 nM | ~0.00289 nM | anti-hIL-8 mAb 861 (antibody, human IgG2, V domains shown, also called antibody number 861) VH: QVQLVESGGGVVQPGRSLRLSCAASGFTFSNYGMHWVRQAPGKGLEWVAVIYFEGSNKYNADSVKGRFTISRDNSKNTLYLQMNSLRAEDTAVYYCARSPYGDYLDYWGQGTLVTVSS VL: EIVLTQSPGTLSLSPGERATLSCRASQTIDYNYLHWYQQKPGQAPRLLIYGTFIRATVIPDRFSGSGSGTDFTLTISRLEPEDIAVYYCQQFGRSPLTFGGGTKVEIK | Kd [1]: 0.003 nM
8 | – | – | 0.63 nM | – | anti-hIL-8 mAb 1080 (antibody, human IgG2, V domains shown) VH: QVQLQQWGAGLLKPSESLSLTCAVYGGSFFSGYYWSWIRQPPGKGLEWIGEITHSGNTNYNPSLKSRVSISVDTSTNQFSLKLSSVTAADTAVYYCGRGGAEVGFDYWGQGTLVTVSS VL: not shown | –
9 | 4.8e+06 M⁻¹ s⁻¹ | 1.6e-05 s⁻¹ | – | ~0.00223 nM | anti-hIL-8 mAb 809 (antibody, human IgG2, V domains shown, also called clone 6G11) VH: QVQLVESGGGVVQPGRSLRLSCAASGFTFSSYGMLWVRQAPGKGLEWVADISYDGSNKYYADSVKGRFTISRDNSKNTLFLQMNSLRAEDTAVYYCARDRIAVADYWGQGTLVTVSS VL: not shown | binding result [8]: binds; Kd [9]: 0.00329 nM; Kd [10]: 0.0022 nM

Reference: patent US20140105905A1 (Amgen, published 2014)
